Patent publication US20220185903A1, “Novel bispecific binding molecule and drug conjugate thereof” (priority 2019, published 2022)
Where a SMILES comes first, the peptide text is derived from it. [ ]: non-standard residue; d: D form. The star is where a group is joined. Dolaproine = CO[C@@H]([C@@H]1CCCN1)[C@@H](C)C(=O)O; Dil = CC[C@H](C)[C@H](NC)[C@@H](CC(=O)O)OC; X1 = C[C@@H](N*)[C@@H](O)c1ccccc1; NMeV = CN[C@H](C(=O)O)C(C)C

Key:
CD20+/CXCR4+ Ramos cells = assay: Killing activity of ADC on co-cultured Ramos/Jurkat cells: Ramos count; format: cell-based
Description: (§1) 6.2 Analysis of Killing Activity of ADC on Co-Cultured Ramos/Jurkat Cells
(§2) Ramos and Jurkat cells (RPMI 1640 medium containing 10% FBS and 1% double antibody) were cultured, respectively. Jurkat cells were stained with calcein-AM (eBioscience) and Ramos cells stained with Celltracker Organge CMTMR (Invitrogen) according to protocols provided by the manufacturer, followed by washed for three times with PBS. After cell count, Ramos and Jurkat cells were mixed at a ratio of 1:1, and 2×10^4 Ramos/Jurkat mixed cells were added to a U-shaped bottom 96-well plate (90 ul/well). 10 ul of SYN-AC, RTX or RXT-AC with different concentrations was added to the 96-well plate above, and incubated at 37° C., 5% CO2 for 72 hours. The numbers of the Ramos and Jurkat cells were counted with a flow cytometer (BD LSR II with a BD high throughput Sampler (HTS)).

[1] = tested on: CD20−/CXCR4+ Jurkat cells; assay: Killing activity of ADC on co-cultured Ramos/Jurkat cells: Jurkat count; format: cell-based; details: co-cultured Ramos/Jurkat 1:1, 72 hours, flow cytometer count
Description: as §1, §2

CD20 = target: T1, CD20 (UniProt P11836 1-297, limits assumed); assay: cell-based or functional assay
T1 sequence (looked up): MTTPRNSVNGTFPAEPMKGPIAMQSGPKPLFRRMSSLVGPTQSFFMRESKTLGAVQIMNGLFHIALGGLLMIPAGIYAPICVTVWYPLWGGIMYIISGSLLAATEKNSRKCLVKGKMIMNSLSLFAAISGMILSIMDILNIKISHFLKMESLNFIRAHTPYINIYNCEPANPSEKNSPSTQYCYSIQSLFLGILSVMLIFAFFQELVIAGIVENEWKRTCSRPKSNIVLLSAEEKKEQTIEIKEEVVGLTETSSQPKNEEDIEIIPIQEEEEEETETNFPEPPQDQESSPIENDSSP

CXCR4 [2] = target: T2, CXCR4 (UniProt P61073 1-352, limits assumed); assay: cell-based or functional assay
CXCR4 [3] = target: T2, CXCR4; assay: flow cytometry on CXCR4+/CD20- Jurkat cells
Description: (§3) The CXCR4⁺/CD20⁻ Jurkat cells and CXCR4^dim/CD20⁺JAB cells were cultured in RPMI 1640 medium containing 10% FBS and […]). Cells were collected by centrifugation, and washed with PBS for 3-4 times. After blocked by 1% BSA (in PBS) at 4° C. for 1 h, the cells were resuspended with PBS with 1% BSA at a density of 5×10⁵/100 μL. […] After being washed with PBS with 1% BSA for 3 times, cells were resuspended with PBS/1% BSA containing a PE-anti-human Fc antibody (Clone HP6017, Biolegend, CA), and incubated at 4° C. for 2 hours. Then an LSR II flow cytometer (Becton Dickinson, N.J.) was applied, and FlowJo software (TreeStar, OR) was used for analysis. Data was analyzed by nonlinear regression using a log (agonist) vs. response model in Prizm Graphpad software.

CXCR4 [4] = target: T2, CXCR4; assay: flow cytometry on CXCR4+/CD20- Jurkat cells, PE-anti-human Fc detection
Description: as §3

T2 sequence (P61073 whole entry): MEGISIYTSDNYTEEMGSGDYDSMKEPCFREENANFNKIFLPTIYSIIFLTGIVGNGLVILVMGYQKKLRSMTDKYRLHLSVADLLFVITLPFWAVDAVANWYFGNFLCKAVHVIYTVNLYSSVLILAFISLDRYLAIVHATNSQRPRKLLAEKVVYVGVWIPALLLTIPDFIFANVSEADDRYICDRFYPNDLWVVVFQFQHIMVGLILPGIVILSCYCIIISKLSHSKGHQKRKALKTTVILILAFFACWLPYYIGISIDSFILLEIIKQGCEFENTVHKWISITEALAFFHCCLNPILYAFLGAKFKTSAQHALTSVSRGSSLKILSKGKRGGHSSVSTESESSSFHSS

CC[C@H](C)[C@@H]([C@@H](CC(=O)N1CCC[C@H]1[C@H](OC)[C@@H](C)C(=O)N[C@H](C)[C@@H](O)c1ccccc1)OC)N(C)C(=O)[C@@H](NC(=O)[C@@H](NC)C(C)C)C(C)C [MMAE, monomethylalistatin E, reference compound] (H-[NMeV]V[Dil][Dolaproine]-X1)
TI (therapeutic index) (CD20+/CXCR4+ Ramos cells; co-cultured Jurkat and Ramos cells, selectivity Jurkat vs Ramos): 2.7 | EC50 (CD20+/CXCR4+ Ramos cells; co-cultured Ramos/Jurkat 1:1, 72 hours, flow cytometer count): 9.1 ± 3.8 nM | EC50 [1]: 24.5 ± 6.8 nM

B1: RTX-MMAE (RTX conjugated with NHS-PEG4-MMAE) (other)
heavy: QVQLQQPGAELVKPGASVKMSCKASGYTFTSYNMHWVKQTPGRGLEWIGAIYPGNGDTSYNQKFKGKATLTADKSSSTAYMQLSSLTSEDSAVYYCARSTYYGGDWYFNVWGAGTTVTVSAASTKGPSVFPLAPSSKSTSGGTAALGCLVKDYFPEPVTVSWNSGALTSGVHTFPAVLQSSGLYSLSSVVTVPSSSLGTQTYICNVNHKPSNTKVDKKVEPKSCDKTHTCPPCPAPPVAGPSVFLFPPKPKDTLMISRTPEVTCVVVDVSHEDPEVKFNWYVDGVEVHNAKTKPREEQYNSTYRVVSVLTVLHQDWLNGKEYKCKVSNKGLPSSIEKTISKAKGQPREPQVYTLPPSRDELTKNQVSLTCLVKGFYPSDIAVEWESNGQPENNYKTTPPVLDSDGSFFLYSKLTVDKSRWQQGNVFSCSVMHEALHNHYTQKSLSLSPGK
light: QIVLSQSPAILSASPGEKVTMTCRASSSVSYIHWFQQKPGSSPKPWIYATSNLASGVPVRFSGSGSGTSYSLTISRVEAEDAATYYCQQWTSNPPTFGGGTKLEIKRTVAAPSVFIFPPSDEQLKSGTASVVCLLNNFYPREAKVQWKVDNALQSGNSQESVTEQDSKDSTYSLSSTLTLSKADYEKHKVYACEVTHQGLSSPVTKSFNRGEC
modifications: conjugated with NHS-PEG4-MMAE, 0 to 2 per light chain by MS; sites not stated; conjugated with NHS-PEG4-MMAE, 0 to 2 per heavy chain by MS; sites not stated
EC50 (nM), killing of Ramos cells in co-cultured Ramos/Jurkat cells, 72 h (CD20): 6 nM

B2: RTX-AC-MMAE (RTX-AC conjugated with NHS-PEG4-MMAE) (other)
heavy: QVQLQQPGAELVKPGASVKMSCKASGYTFTSYNMHWVKQTPGRGLEWIGAIYPGNGDTSYNQKFKGKATLTADKSSSTAYMQLSSLTSEDSAVYYCARSTYYGGDWYFNVWGAGTTVTVSAASTKGPSVFPLAPSSKSTSGGTAALGCLVKDYFPEPVTVSWNSGALTSGVHTFPAVLQSSGLYSLSSVVTVPSSSLGTQTYICNVNHKPSNTKVDKKVEPKSCDKTHTCPPCPAPPVAGPSVFLFPPKPKDTLMISRTPEVTCVVVDVSHEDPEVKFNWYVDGVEVHNAKTKPREEQYNSTYRVVSVLTVLHQDWLNGKEYKCKVSNKGLPSSIEKTISKAKGQPREPQVYTLPPSRDELTKNQVSLTCLVKGFYPSDIAVEWESNGQPENNYKTTPPVLDSDGSFFLYSKLTVDKSRWQQGNVFSCSVMHEALHNHYTQKSLSLSPGK
light: QIVLSQSPAILSASPGEKVTMTCRASSSVSYIHWFQQKPGSSPKPWIYATSNLASGVPVRFSGSGSGTSYSLTISRVEAEDAATYYCQQWTSNPPTFGGGTKLEIKRTVAAPSVFIFPPSDEQLKSGTASVVCLLNNFYPREAKVQWKVDNALQSGNSQESVTEQDSGGSGAKLAALKAKLAALKGGGGSYRKCRGGRRWCYQKGGGGSELAALEAELAALEAGGSGDSTYSLSSTLTLSKADYEKHKVYACEVTHQGLSSPVTKSFNRGEC
modifications: conjugated with NHS-PEG4-MMAE, 0 to 2 per light chain by MS; sites not stated; conjugated with NHS-PEG4-MMAE, 0 to 3 per heavy chain by MS; sites not stated
EC50 (nM), killing of Ramos cells in co-cultured Ramos/Jurkat cells, 72 h (CXCR4 [2]): 0.29 nM | EC50 (nM), killing of Ramos cells in co-cultured Ramos/Jurkat cells, 72 h (CD20): 0.29 nM

B3: RTX-AC (Rituxan with the CXCR4 antagonistic peptide inserted into the constant region of the light chain) (bispecific antibody, human IgG1, kappa)
heavy: QVQLQQPGAELVKPGASVKMSCKASGYTFTSYNMHWVKQTPGRGLEWIGAIYPGNGDTSYNQKFKGKATLTADKSSSTAYMQLSSLTSEDSAVYYCARSTYYGGDWYFNVWGAGTTVTVSAASTKGPSVFPLAPSSKSTSGGTAALGCLVKDYFPEPVTVSWNSGALTSGVHTFPAVLQSSGLYSLSSVVTVPSSSLGTQTYICNVNHKPSNTKVDKKVEPKSCDKTHTCPPCPAPPVAGPSVFLFPPKPKDTLMISRTPEVTCVVVDVSHEDPEVKFNWYVDGVEVHNAKTKPREEQYNSTYRVVSVLTVLHQDWLNGKEYKCKVSNKGLPSSIEKTISKAKGQPREPQVYTLPPSRDELTKNQVSLTCLVKGFYPSDIAVEWESNGQPENNYKTTPPVLDSDGSFFLYSKLTVDKSRWQQGNVFSCSVMHEALHNHYTQKSLSLSPGK
light: QIVLSQSPAILSASPGEKVTMTCRASSSVSYIHWFQQKPGSSPKPWIYATSNLASGVPVRFSGSGSGTSYSLTISRVEAEDAATYYCQQWTSNPPTFGGGTKLEIKRTVAAPSVFIFPPSDEQLKSGTASVVCLLNNFYPREAKVQWKVDNALQSGNSQESVTEQDSGGSGAKLAALKAKLAALKGGGGSYRKCRGGRRWCYQKGGGGSELAALEAELAALEAGGSGDSTYSLSSTLTLSKADYEKHKVYACEVTHQGLSSPVTKSFNRGEC
notes: hIgG1 Fc with E233P/L234V/L235A/deltaG236+A327G/A330S/P331S; also called RXT-AC
binding result (CXCR4 [3]): binds

B4: RTX (Rituxan, anti-CD20 antibody) (antibody, V domains shown)
VH: QVQLQQPGAELVKPGASVKMSCKASGYTFTSYNMHWVKQTPGRGLEWIGAIYPGNGDTSYNQKFKGKATLTADKSSSTAYMQLSSLTSEDSAVYYCARSTYYGGDWYFNVWGAGTTVTVSA
VL: QIVLSQSPAILSASPGEKVTMTCRASSSVSYIHWFQQKPGSSPKPWIYATSNLASGVPVRFSGSGSGTSYSLTISRVEAEDAATYYCQQWTSNPPTFGGGTKLEIKR
notes: Rituxan Fab heavy chain cloned into pFuse-hIgG1-Fc carrying E233P/L234V/L235A/deltaG236+A327G/A330S/P331S; expressed in HEK293
binding result (CXCR4 [4]): no binding

B5: SYN-AC-MMAE (SYN-AC conjugated with NHS-PEG4-MMAE) (other)
heavy: QVTLRESGPALVKPTQTLTLTCTFSGFSLSTSGMSVGWIRQPPGKALEWLADIWWDDKKDYNPSLKSRLTISKDTSKNQVVLKVTNMDPADTATYYCARSMITNWYFDVWGAGTTVTVSSASTKGPSVFPLAPSSKSTSGGTAALGCLVKDYFPEPVTVSWNSGALTSGVHTFPAVLQSSGLYSLSSVVTVPSSSLGTQTYICNVNHKPSNTKVDKKVEPKSCDKTHTCPPCPAPPVAGPSVFLFPPKPKDTLMISRTPEVTCVVVDVSHEDPEVKFNWYVDGVEVHNAKTKPREEQYNSTYRVVSVLTVLHQDWLNGKEYKCKVSNKGLPSSIEKTISKAKGQPREPQVYTLPPSRDELTKNQVSLTCLVKGFYPSDIAVEWESNGQPENNYKTTPPVLDSDGSFFLYSKLTVDKSRWQQGNVFSCSVMHEALHNHYTQKSLSLSPGK
light: DIQMTQSPSTLSASVGDRVTITCKCQLSVGYMHWYQQKPGKAPKLLIYDTSKLASGVPSRFSGSGSGTEFTLTISSLQPDDFATYYCFQGSGYPFTFGGGTKLEIKRTVAAPSVFIFPPSDEQLKSGTASVVCLLNNFYPREAKVQWKVDNALQSGNSQESVTEQDSGGSGAKLAALKAKLAALKGGGGSYRKCRGGRRWCYQKGGGGSELAALEAELAALEAGGSGDSTYSLSSTLTLSKADYEKHKVYACEVTHQGLSSPVTKSFNRGEC
modifications: conjugated with NHS-PEG4-MMAE, 0 to 2 per light chain by MS; sites not stated; conjugated with NHS-PEG4-MMAE, 0 to 2 per heavy chain by MS; sites not stated
EC50 (nM), killing of Jurkat cells in co-cultured Ramos/Jurkat cells, 72 h (CXCR4 [2]): 21 nM | EC50 (nM), killing of Ramos cells in co-cultured Ramos/Jurkat cells, 72 h (CXCR4 [2]): 12.6 nM

B6: SYN-AC (Synagis, anti-RSV, with the CXCR4 antagonistic peptide inserted into the constant region of the light chain) (bispecific antibody, human IgG1, kappa)
heavy: QVTLRESGPALVKPTQTLTLTCTFSGFSLSTSGMSVGWIRQPPGKALEWLADIWWDDKKDYNPSLKSRLTISKDTSKNQVVLKVTNMDPADTATYYCARSMITNWYFDVWGAGTTVTVSSASTKGPSVFPLAPSSKSTSGGTAALGCLVKDYFPEPVTVSWNSGALTSGVHTFPAVLQSSGLYSLSSVVTVPSSSLGTQTYICNVNHKPSNTKVDKKVEPKSCDKTHTCPPCPAPPVAGPSVFLFPPKPKDTLMISRTPEVTCVVVDVSHEDPEVKFNWYVDGVEVHNAKTKPREEQYNSTYRVVSVLTVLHQDWLNGKEYKCKVSNKGLPSSIEKTISKAKGQPREPQVYTLPPSRDELTKNQVSLTCLVKGFYPSDIAVEWESNGQPENNYKTTPPVLDSDGSFFLYSKLTVDKSRWQQGNVFSCSVMHEALHNHYTQKSLSLSPGK
light: DIQMTQSPSTLSASVGDRVTITCKCQLSVGYMHWYQQKPGKAPKLLIYDTSKLASGVPSRFSGSGSGTEFTLTISSLQPDDFATYYCFQGSGYPFTFGGGTKLEIKRTVAAPSVFIFPPSDEQLKSGTASVVCLLNNFYPREAKVQWKVDNALQSGNSQESVTEQDSGGSGAKLAALKAKLAALKGGGGSYRKCRGGRRWCYQKGGGGSELAALEAELAALEAGGSGDSTYSLSSTLTLSKADYEKHKVYACEVTHQGLSSPVTKSFNRGEC
notes: hIgG1 Fc with E233P/L234V/L235A/deltaG236+A327G/A330S/P331S
binding result (CXCR4 [3]): binds
